# In the supplement of paper PMC7877785:
# ± gives the uncertainty stated by the source.
# Assay: self-splicing fitness, log relative to wild type (ln ratio); higher = more splicing; Tetrahymena group I intron in knt gene, E. coli kanamycin selection, DiMSum; sequences stand for … in CUCUCU…GGAGGGAAAAGUUAUCAGGCAUGCACCUGGUAGCUAGUCUUUAAACCAAUAGAUUGCAUCGGUUUAAAAGGCAAGACCGUCAAAUUGCGGGAAAGGGGUCAACAGCCGUUCAGUACCAAGUCUCAGGGGAAACUUUGAGAUGGCCUUGCAAAGGGUAUGGUAAUAAGCUGACGGACAUGGUCCUAACCACGCAGCCAAGUCCUAAGUCAACAGAUCUUCUGUUGAUAUGGAUGCAGUUCACAGACUAAAUGUCGGUCGGGGAAGAUGUAUUCUUCUCAUAAGAUAUAGUCGGACCUCUCCUUAAUGGGAGCUAGCGGAUGAAGUGAUGCAACACUGGAGCCGCUGGGAACUAAUUUGUAUGCGAAAGUAUAUUGAUUAGUUUUGGAGUACUCGUGGUCG
# How it was run: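 Colonies from six replicate transformations of E. coli BL21(DE3) were pooled and amplicon-sequenced on an Illumina HiSeq 2500. The library placed an intron with all eight P1ex-region nucleotides randomised inside the knt kanamycin-resistance gene on pET-22b(+), and cells grew overnight at 37°C or 30°C on LB agar with or without 25 μg/mL kanamycin (plus 100 μg/mL carbenicillin, 50 μM IPTG, 0.2% rhamnose). Fitness is the DiMSum error-weighted combination of wild-type-normalised replicate fold changes, kanamycin versus none.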
Sequence,self-splicing fitness (ln) (30 °C),self-splicing fitness (ln) (37 °C)
GCGGAGCAAUAUUACGUAGU,-2.12 ± 0.23,0.836 ± 0.34
GCGGAGCAAUAUUACGUGAG,-2.51 ± 0.12,-2.01 ± 0.15
GCGUAGCAAUAUUACGAAAC,-0.751 ± 0.25,-0.283 ± 0.4
GCGUAGCAAUAUUACGACCA,-1.52 ± 0.17,-0.255 ± 0.16
GCGUAGCAAUAUUACGACCU,-0.0292 ± 0.22,-0.575 ± 0.34
GCGUAGCAAUAUUACGACGU,-3.1 ± 0.16,-1.45 ± 0.28
GCGUAGCAAUAUUACGAGAA,-1.15 ± 0.29,-1.9 ± 0.2
GCGUAGCAAUAUUACGCAAC,-3.87 ± 0.18,-2.33 ± 0.17
GCGUAGCAAUAUUACGCAGG,-3.66 ± 0.47,-3.54 ± 0.33
GCGUAGCAAUAUUACGCAUG,–,-2.21 ± 0.23
GCGUAGCAAUAUUACGCGAU,-2.83 ± 0.26,-2.31 ± 0.26
GCGUAGCAAUAUUACGCUGG,-2 ± 0.18,-2.12 ± 0.32
GCGUAGCAAUAUUACGGACC,-2.2 ± 0.24,-2.35 ± 0.35
GCGUAGCAAUAUUACGGAGC,-4.23 ± 0.28,-3.03 ± 0.35
GCGUAGCAAUAUUACGGCAC,-0.32 ± 0.17,-0.367 ± 0.22
GCGUAGCAAUAUUACGGCGU,-4.1 ± 0.37,-2.07 ± 0.28
GCGUAGCAAUAUUACGGGAG,–,-2.28 ± 0.35
GCGUAGCAAUAUUACGGUCU,-0.587 ± 0.091,-0.159 ± 0.1
GCGUAGCAAUAUUACGUCAA,–,-2.38 ± 0.32
GCGUAGCAAUAUUACGUGCC,-3.08 ± 0.25,-2.83 ± 0.44
GCUAAGCAAUAUUACGAAUC,0.136 ± 0.29,-0.437 ± 0.35
GCUAAGCAAUAUUACGACAU,-0.734 ± 0.013,-0.156 ± 0.033
GCUAAGCAAUAUUACGACCC,-0.411 ± 0.11,0.239 ± 0.14
GCUAAGCAAUAUUACGACCU,-0.833 ± 0.1,0.599 ± 0.12

Sequence,self-splicing fitness (ln) (30 °C),self-splicing fitness (ln) (37 °C)
GCUAAGCAAUAUUACGACUG,-0.97 ± 0.1,-0.946 ± 0.14
GCUAAGCAAUAUUACGAGCC,-3.9 ± 0.2,-2.33 ± 0.33
GCUAAGCAAUAUUACGAGUC,-3.37 ± 0.21,-1.96 ± 0.22
GCUAAGCAAUAUUACGAUAG,-1.25 ± 0.13,-1.63 ± 0.17
GCUAAGCAAUAUUACGAUGA,-0.837 ± 0.09,-0.253 ± 0.1
GCUAAGCAAUAUUACGCACA,-0.938 ± 0.098,-0.709 ± 0.11
GCUAAGCAAUAUUACGCGGG,-3.54 ± 0.2,-0.902 ± 0.13
GCUAAGCAAUAUUACGCUAG,-2.94 ± 0.35,-3.64 ± 0.4
GCUAAGCAAUAUUACGCUGG,-4.23 ± 0.24,-2.76 ± 0.26
GCUAAGCAAUAUUACGGCAA,-2.17 ± 0.21,-0.981 ± 0.16
GCUAAGCAAUAUUACGGGUC,-2.55 ± 0.17,-1.89 ± 0.15
GCUAAGCAAUAUUACGGGUU,-2.18 ± 0.09,-1.28 ± 0.089
GCUAAGCAAUAUUACGGUAU,-0.915 ± 0.083,-0.555 ± 0.1
GCUAAGCAAUAUUACGGUGA,-0.864 ± 0.073,-0.0497 ± 0.077
GCUAAGCAAUAUUACGUAUC,-0.952 ± 0.082,-0.277 ± 0.1
GCUAAGCAAUAUUACGUGGA,-2 ± 0.093,-1.7 ± 0.092
GCUAAGCAAUAUUACGUGGU,-3.27 ± 0.19,-2.5 ± 0.18
GCUAAGCAAUAUUACGUGUG,-1.22 ± 0.079,-0.636 ± 0.098
GCUAAGCAAUAUUACGUUGU,-2.7 ± 0.11,-2.43 ± 0.13
GCUCAGCAAUAUUACGAACC,-1.34 ± 0.22,0.355 ± 0.23
GCUCAGCAAUAUUACGACAG,-3.53 ± 0.21,-2.28 ± 0.22
GCUCAGCAAUAUUACGACUC,-0.0981 ± 0.14,0.646 ± 0.14
GCUCAGCAAUAUUACGAGCA,-2.63 ± 0.16,-1.09 ± 0.11
GCUCAGCAAUAUUACGAUCU,-0.418 ± 0.094,-0.185 ± 0.099
